Data on 18 molecules can be found in patent US20220356230A1 (published 2022).

For test [1], the target named is T1, MERS-CoV (NCoV/Novel coronavirus) Spike Protein S1 Protein (aa 1-725, His Tag) (Sino 40069-V08B1) (MERS-CoV, UniProt K9N5Q8 18-725).
T1 sequence: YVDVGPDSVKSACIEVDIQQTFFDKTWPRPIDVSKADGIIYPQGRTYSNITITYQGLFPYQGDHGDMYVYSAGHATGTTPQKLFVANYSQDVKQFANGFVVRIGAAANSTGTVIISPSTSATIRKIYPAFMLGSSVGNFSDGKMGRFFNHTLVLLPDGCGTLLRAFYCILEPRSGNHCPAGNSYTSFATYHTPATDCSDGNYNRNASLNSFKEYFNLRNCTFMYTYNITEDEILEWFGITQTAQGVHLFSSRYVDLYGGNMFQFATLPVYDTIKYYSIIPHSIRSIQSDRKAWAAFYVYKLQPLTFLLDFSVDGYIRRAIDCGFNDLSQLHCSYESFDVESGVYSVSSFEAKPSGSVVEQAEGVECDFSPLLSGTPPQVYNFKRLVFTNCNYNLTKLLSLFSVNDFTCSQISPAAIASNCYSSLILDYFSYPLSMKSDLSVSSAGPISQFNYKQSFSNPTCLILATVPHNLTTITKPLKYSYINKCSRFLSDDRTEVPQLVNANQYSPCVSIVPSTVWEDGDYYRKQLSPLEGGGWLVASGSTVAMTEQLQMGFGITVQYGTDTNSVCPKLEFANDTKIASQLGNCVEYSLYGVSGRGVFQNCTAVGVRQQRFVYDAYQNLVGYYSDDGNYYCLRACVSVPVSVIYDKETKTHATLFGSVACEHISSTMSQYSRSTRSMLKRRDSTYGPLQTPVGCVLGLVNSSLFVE
Briefly: Luminex bead assay, supernatant.

For test [2], the target named is T2, MERS-CoV (NCoV/Novel coronavirus) Spike Protein fragment (RBD, aa 367-606, His Tag) (Sino 40071-V08B1) (MERS-CoV, UniProt K9N5Q8 367-606).
T2 sequence: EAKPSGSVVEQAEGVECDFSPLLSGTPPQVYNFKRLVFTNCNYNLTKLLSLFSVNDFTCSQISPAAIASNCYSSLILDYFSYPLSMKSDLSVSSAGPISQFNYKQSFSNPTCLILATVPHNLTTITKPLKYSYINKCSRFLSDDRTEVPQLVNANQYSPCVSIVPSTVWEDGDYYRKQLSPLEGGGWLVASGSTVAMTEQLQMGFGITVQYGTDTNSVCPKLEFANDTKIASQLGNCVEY
Briefly: Luminex bead assay, supernatant.

B1: mAb10930 (antibody, V domains shown)
VH: EVQLVESGGGLVQPGRSLRLSCAASGFTFDDYAMYWVRQAPGKGLEWVSGISWNSGSIGYADSVKGRFTISRDNAKNSLYLQMNSLRAADTALYYCAKDKDWNSRGYYYYGMDVWGQGTTVTVSS
VL: not shown
As for B1, the “Binding signal (MFI)” value in test [1] worked out at 22 MFI; in test [2], 27 MFI.

B2: mAb10920 (antibody, V domains shown)
VH: QVQLVESGGGVVQPGRSLRLSCAASGFTFSYYGMHWVRQAPGKGLEWVAVIWYDGSNKFYADSVKGRFTISRDNSKNTLYLQMNSLRAEDTAVYYCAAARPGYYYGMDVWGQGTTVTVSS
VL: DIQMTQSPSSLSASVGDRVTITCRASQGISNYLAWFQQKPGKAPNSLIYAASSLQRGVPSKFSGSGSGTDFTLTISSLQPEDFATYYCQQYNSYPRTFGQGTKVEIKR
As to B2, the results for the “Binding signal (MFI)” value in test [1] and in test [2] were 27 MFI and 39 MFI, respectively.

B3: mAb10964 (antibody, V domains shown)
VH: QVQLQESGPGLVKPSETLSLTCTVSGGSINNYYWIWIRQPPGKGLEWIGYIYHSGSTNYNPSLKSRVTISVDTSKNQFSLKVSSVTAADTAVYYCANMVRGVYEDDYWGQGTLVTVSS
VL: DIQMTQSPSSLSASVGDRVTITCRASQSISNYLNWYQQKPGKAPKLLIFAASSLRSGVPSRFSGSGSGTDFTLTISSLHPEDFATYYCQQNYNTPLTFGPGTKVDIKR
As to B3, in test [1], the “Binding signal (MFI)” value was 19 MFI.

B4: mAb10971 (antibody, V domains shown)
VH: EVQLVESGGGLIQPGGSLRLSCAASGVTVSSNYMSWVRQAPGKGLEWVSVIYSGGSTFYSDSVKGRFSISRDNSKNTLYLQMNSLRAEDTAVYYCARDLYYYGMDVWGQGTTVTVSS
VL: DIQLTQSPSFLSASVGDRVTITCRASQGISTYLAWYQQKPGKAPKLLIYAASTLQSGVPSRFSGSGSGTEFTLTISSLQPEDFATYYCQQLDSYPGLTFGGGTKVEIKR
As to B4, the “Binding signal (MFI)” value in test [1] was found to be 19 MFI.

B5: mAb10984 (antibody, V domains shown)
VH: EVQLVESGGGLVQPGGSLRLSCAASGLTVNRNYMSWVRQAPGKGLEWVSLIYSGGSTYYADSVKGRFTISRDNSKNTLYLQMNSLRLEDTAVYYCARGELGIPYGMDVWGQGTTVTVSS
VL: QSVLTQPPSVSAAPGQKVTISCSGSSSNIGNNYVSWYQQLPGTAPKLLIYDNNKRPSGIPDRFSGSKSGTSATLGITGLQTGDEADYYCGTWDSSLSAGVFGGGTKLTVLG
In the case of B5, the figures for the “Binding signal (MFI)” value in test [1] and in test [2] were 20 MFI and 29 MFI, respectively.

B6: mAb10914 (antibody, V domains shown)
VH: EVQLVESGGGLVQPGGSLRLSCAASGLIVSRNYMIWVRQAPGKGLEWVSVIYSGGSTFYADSVKGRFTISRHNSKNTLYLQMNSLRAEDTAVYYCARDLGTGGMDVWGQGTTVTVSS
VL: DIQLTQSPSFLSASVGDRVTITCWASQGISSYLAWYQQKPGKAPKLLIYAASTLQSGVPSRFSGSGSGTEFTLTISSLQPEDFATYYCQQLNSYPLTFGGGTKVEIKR
Take B6: the “Binding signal (MFI)” value in test [1] was 23 MFI; in test [2] it was 31 MFI.

B7: mAb10957 (antibody, V domains shown)
VH: EVQLVESGGGLVQPGGSLRLSCAASGVTVSSNYMSWVRQAPGKGLEWVSVIYSGGSTFYADSVKGRFTISRDNSKNTLFLQMNSLRIEDTAVYYCARDLGPYGMDVWGQGTTVTVSS
VL: DIQLTQSPSFLSASVGDRVTITCRASQGISSYLAWYQQKPGKAPKLLIYAASTLQSGVPSRFSGSGSGTQFILTISSLQPEDFATYYCQQLNSYPGFTFGPGTKVDIKR
As to B7, in test [1], the “Binding signal (MFI)” value turned out to be 19 MFI.

B8: mAb10937 (antibody, V domains shown)
VH: QITLKESGPTLVKPTQTLTLTCTFSGFSLSTNVVGVGWIRQPPGKALEWLALIYWNDDKRYSPSLKSRLTITKDTSKNQVVLTMTNMDPVDTATYYCAHGPTGDYFDYWGQGTLVTVSS
VL: not shown
As to B8, the “Binding signal (MFI)” value in test [1] came to 22 MFI; in test [2], 27 MFI.

B9: mAb10969 (antibody, V domains shown)
VH: QVQLVESGGGVVQPGRSLRLSCAASGFTFSSYAMHWVRQAPGKGLEWVAVISYDGSNKYYADSVKGRFTISRDNSKNTLYLQMNSLRAEDTAVYYCARDGRTITMVRGVIDDAFDIWGQGTMVTVSS
VL: not shown
In the case of B9, the “Binding signal (MFI)” value in test [1] worked out at 19 MFI.

B10: mAb10923 (antibody, V domains shown)
VH: QVQLVQSGAEVKKPGASVKVSCKASGYTFINYYIHWVRQAPGQGLEWMGWINPNSGGTNYAQKFQGRVTMTRDTSISTAYMELSRLRSDDTAVYYCAIITIFGVVTWFDPWGQGTLVTVSS
VL: not shown
Regarding B10, the “Binding signal (MFI)” value in test [1] was found to be 25 MFI; in test [2], 37 MFI.

B11: mAb10982 (antibody, V domains shown)
VH: EVQLVESGGGLVQPGGSLRLSCAASGLTVSSNYMSWVRQAPGKGLEWVSVIYSGGTTYYADSVKGRFTISRHNSKNTLSLQMNSLRAEDTAVYYCARGEGANYYGMDVWGQGTTVTVSS
VL: QSVLTQPPSVSGAPGQRVTISCTGSSSNIGTGYDVHWYQQLPGTAPKLLIYGNSNRPSGVPDRFSGSKSGTSASLAITGLQAEDEADYYCQSYDSSLSGYVVFGGGTKLTVLG
As to B11, the “Binding signal (MFI)” value in test [2] is 29 MFI.

B12: mAb10985 (antibody, V domains shown)
VH: EVQLVESGGGLVQPGRSLRLSCAASGFTFDDYAMHWVRQAPGKGLEWVSGISWNRGSIGYADSVKGRFTISRDNAKNSLYLQMSSLRAEDTALYYCAKDGERWDSVVVPSARNGMDVWGQGTTVTVSS
VL: QSVLTQPPSVSGAPGQRVTISCTGSSSNIGAGYDVHWYQQLPGTAPKLLIYGNSNRPSGVPDRFSGSKSGTSASLAITGLQAEDEADYYCQSYDSSLSGSYVFGTGTKVTVLG
Regarding B12, the “Binding signal (MFI)” value in test [1] was found to be 22 MFI; in test [2] it was 31 MFI.

B13: mAb10921 (antibody, V domains shown)
VH: EVQLVESGGGLVQPGGSLRLSCAASGITVSSNYMSWVRQAPGKGLEWVSVIYSGGSTFYADSVKGRFTISRHNSKNTLYLQMNSLRAEDTAVYYCARERNFDAFDIWGQGTMVTVSS
VL: DIQMTQSPSSVSASVGDRVTITCRASQGISSWLAWYQQKPGKAPKLLIYAASSLQSGVPSRFSGSGSGTDFTLTISSLQPEDFATYYCQQANSFPLFTFGPGTKVDIKR
B13: the “Binding signal (MFI)” value in test [2] turned out to be 23 MFI.

B14: mAb10934 (antibody, V domains shown)
VH: not shown
VL: DIQMTQSPSSLSASVGDRVTITCQASQDIWNYINWYQQKPGKAPKLLIYDASNLKTGVPSRFSGSGSGTDFTFTISSLQPEDIATYYCQQHDDLPPTFGQGTKVEIKR
On to B14, for which the “Binding signal (MFI)” value in test [1] amounted to 20 MFI; in test [2], 24 MFI.

B15: mAb10935 (antibody, V domains shown)
VH: EVQLVESGGGLVQPGGSLRLSCAASGFTVSSNYMSWVRQAPGKGLEWVSLIYSGGSTYYADSVKGRFTISRHNSKNTLYLQMNSLRSEDTAVYYCARVPLGDYYYGMDVWGQGTTVTVSS
VL: DIQMTQSPSSLSASVGDRVTITCQASQDINKYLNWYQQKPGKAPKLLIYDASNLETGVPSRFSGSGSGTDFTFTISSLQPEDIATYYCQQSDNLPLTFGGGTKVEIKR
For the molecule B15, the “Binding signal (MFI)” value in test [2] is 25 MFI.

B16: mAb10938 (antibody, V domains shown)
VH: EVQLVESGGGLVQPGGSLRLSCAVSGFTVSSNYMSWVRQAPGKGLEWVSLIYSGGSTFYADSVKGRFTISRHNSKNTLYLQMNSLRAEDTAVYYCAREGGYSYDYNYWGQGTLVTVSS
VL: DIQMTQSPSSLSASVGDRVTITCQASQDIRNYLNWYQQKPGKAPKLLIYDASNLETGVPSRFSGIGSGTDFTFTISSLQPEDIATYYCQQYDNLPITFGQGTRLEIKR
For B16, the “Binding signal (MFI)” value in test [1] is 20 MFI; in test [2], 25 MFI.

B17: mAb10936 (antibody, V domains shown)
VH: QVQLVESGGGVVQPGRSLRLSCAASGFTFRNYGMHWVRQAPGKGLEWVSVIWYDGSNRYYADSVKGRFTISRDTSKNTLYLQMNSLRAEDTAVYYCARDPPITGTTGGDAFDIWGQGTMVTVSS
VL: not shown
Regarding B17, the figures for the “Binding signal (MFI)” value in test [1] and in test [2] were 20 MFI and 29 MFI, respectively.

B18: mAb10913 (antibody, V domains shown)
VH: EVQLVESGGGLVQPGGSLRLSCAASGFTFRNYEMNWVRQAPGKGLEWVSYITSSGSTMYYADSVKGRFTISRDNAKNSLYLQMNSLRAEDTAVYYCARDGFYYYYAMDVWGQGTTVTVSS
VL: QSVLTQPPSVSAAPGQKVTISCSGSSSNIGNNYVSWYQQLPGTAPKLLIYDNNKRPSGIPDRFSGSKSGTSATLGITGLQTGDEADYYCGTWDSSLSVGRVFGTGTKVTVLG
Regarding B18, the “Binding signal (MFI)” value in test [1] worked out at 26 MFI; in test [2] it was 34 MFI.
